Measured values taken from patent US20220298244A1 (BEIJING MABWORKS BIOTECH, published 2022).
Substitutions are numbered along the chain they refer to. In names and notes the source's numbering stands.

B1: 3C2VH3VL3 (antibody, human IgG1, kappa, N297A, V domains shown)
VH: QVQLVQSGAEVKKPGASVKVSCKASGYTFTDYHVNWVKQRPGQGLEWIGWIFPGSGRTFYTDKFKGRVTLTVDTSTSTVYMELSSLTSEDTAVYYCATDYGTSGYGLVYWGQGTTVTVSS
VL: DIQMTQSPSSLSASVGDRVTISCKASDRINNWLAWYQQKPGNAPRLLISGATSLETGVPSRFSGSGSGTDYTFTISSLQPEDIATYYCQQYWNIPFTFGQGTKVEIKR
notes: humanized 3C2 antibody
B2: 3C2VH2VL2 (antibody, human IgG1, kappa, N297A, V domains shown)
VH: B1 VH with K38R, R40A
VL: B1 VL with S22T, N42K
notes: humanized 3C2 antibody
B3: 3C2VH2VL4 (antibody, human IgG1, kappa, N297A, V domains shown)
VH: B1 VH with K38R, R40A
VL: B1 VL with T85V
notes: humanized 3C2 antibody
B4: 3C2VH5VL3 (antibody, human IgG1, kappa, N297A, V domains shown)
VH: B1 VH with T28S, R67K, V68A, Y95F
VL: B1 VL
notes: humanized 3C2 antibody
B5: 3C2VH2VL3 (antibody, human IgG1, kappa, N297A, V domains shown)
VH: B1 VH with K38R, R40A
VL: B1 VL
notes: humanized 3C2 antibody
B6: 3C2VH4VL3 (antibody, human IgG1, kappa, N297A, V domains shown)
VH: B1 VH with T28S, Y95F
VL: B1 VL
notes: humanized 3C2 antibody
B7: 3C2VH5VL4 (antibody, human IgG1, kappa, N297A, V domains shown)
VH: B1 VH with T28S, R67K, V68A, Y95F
VL: B1 VL with T85V
notes: humanized 3C2 antibody
B8: 3C2VH3VL2 (antibody, human IgG1, kappa, N297A, V domains shown)
VH: B1 VH
VL: B1 VL with S22T, N42K
notes: humanized 3C2 antibody
B9: 3C2VH5VL2 (antibody, human IgG1, kappa, N297A, V domains shown)
VH: B1 VH with T28S, R67K, V68A, Y95F
VL: B1 VL with S22T, N42K
notes: humanized 3C2 antibody
B10: 3C2VH4VL2 (antibody, human IgG1, kappa, N297A, V domains shown)
VH: B1 VH with T28S, Y95F
VL: B1 VL with S22T, N42K
notes: humanized 3C2 antibody
B11: 3C2VH3VL4 (antibody, human IgG1, kappa, N297A, V domains shown)
VH: B1 VH
VL: B1 VL with T85V
notes: humanized 3C2 antibody
B12: humanized antibody 3C2-VH6VL5 (antibody, human IgG1, kappa, N297A, V domains shown)
VH: B1 VH with K38R, R40A, L70M, T87R
VL: B1 VL with S22T, N42K, R45K, Y71F, F73L
notes: Human IgG1(N297A)/kappa
B13: humanized antibody 3C2-VH4VL4 (antibody, human IgG1, kappa, N297A, V domains shown)
VH: B1 VH with T28S, Y95F
VL: B1 VL with T85V
notes: Human IgG1(N297A)/kappa
B14: 56E5VH2VL4 (antibody, human IgG1, kappa, N297A, V domains shown)
VH: QVQLQESGPGLVKPSQTLSLTCTVSGGSITSDYWNWIRQHPGKGLEYMGYISYTGSTYYNPSLKSRVTITVDTSKNQFSLKLSSVTTADTAVYYCARYRDWDVRAMDYWGQGTTVTVSS
VL: DIVMTQSPDSLAVSLGEKVTMNCKSSQSLLISGNQKNFLTWYQQKPGQPPKLLIYWASTRESGVPDRFSGSGSGTDFTLTISSLQAEDLAVYYCQNDFGFPFTFGQGTKVEIKR
notes: humanized 56E5 antibody
B15: 56E5VH3VL4 (antibody, human IgG1, kappa, N297A, V domains shown)
VH: B14 VH with K43N, G44K
VL: B14 VL
notes: humanized 56E5 antibody
B16: 56E5VH4VL4 (antibody, human IgG1, kappa, N297A, V domains shown)
VH: B14 VH with K43N, G44K, V71R
VL: B14 VL
notes: humanized 56E5 antibody
B17: humanized antibody 56E5-VH5VL4 (antibody, human IgG1, kappa, N297A, V domains shown)
VH: B14 VH with K43N, G44K, V67I, T68S, V71R
VL: B14 VL
notes: Human IgG1(N297A)/kappa
B18: mouse anti-PD-L1 monoclonal antibody 56E5 (antibody, mouse IgG1, V domains shown)
VH: EVQLQESGPGLAKPSQTLSLTCSVTGYSITSDYWNWIRKFPGNKLEYMGYISYTGSTYYNPSLKSRISITRDTSKNQYYLQLNSVTTEDTATYYCARYRDWDVRAMDYWGQGTSVTVSS
VL: DIVMTQSPSSLTVTAGEKVTMNCKSSQSLLISGNQKNFLTWYQQKPGQPPKLLIYWASTRESGVPDRFTGSGSGTDFTLTISSVQAEDLAVYYCQNDFGFPFTFGSGTKLEIK
notes: Purified from hybridoma; also called Mouse 56E5
B19: mouse anti-PD-L1 monoclonal antibody 3C2 (antibody, mouse IgG1, V domains shown)
VH: QVQLNQSGPELMKAGTSVKISCKASGYSFTDYHVNWVKQRPGQGLEWIGWIFPGSGRTFYTDKFKGKATLTVDLSFTTAYIMLNSLTSEDSAVYFCATDYGTSGYGLVYWGQGTSVTVSS
VL: DIQMTQSSSYLSVSLGGRVTISCKASDRINNWLAWYQQKPGNAPRLLISGATSLETGVPSRFSGSGSGKDYTLSITSLQTEDVAVYYCQQYWNIPFTFGSGTKLEIK
notes: Purified from hybridoma; also called Mouse 3C2

biological target: T1, monkey PD-L1 expressed on HEK293A cells (monkey (cynomolgus), UniProt Q9NZQ7 19-290 (human entry)); assay: FACS on HEK293A/monkey PD-L1 cells, serially diluted antibody (protocol of Example 4)
T1 construct: Full-length cDNA expressed stably; also called HEK293A/monkey PD-L1 cells; HEK293A/monkey PD-L1
T1 sequence (Q9NZQ7 other isoform, or with tags, fused parts or gaps limits assumed): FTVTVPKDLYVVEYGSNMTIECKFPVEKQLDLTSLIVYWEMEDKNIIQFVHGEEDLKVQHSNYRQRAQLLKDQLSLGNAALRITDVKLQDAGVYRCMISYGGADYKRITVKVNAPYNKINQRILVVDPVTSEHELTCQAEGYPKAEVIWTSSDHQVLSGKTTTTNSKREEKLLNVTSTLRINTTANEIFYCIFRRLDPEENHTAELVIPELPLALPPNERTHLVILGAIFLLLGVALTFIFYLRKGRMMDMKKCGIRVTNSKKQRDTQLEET

Binder | binding result
B1 | binds
B2 | binds
B3 | binds
B4 | binds
B5 | binds
B6 | binds
B7 | binds
B8 | binds
B9 | binds
B10 | binds
B11 | binds
B12 | binds
B13 | binds

biological target: T2, human PD-L1 expressed on HEK293A cells (human, UniProt Q9NZQ7 19-290); assay: FACS on cells, serially diluted antibody (protocol of Example 4); legend paragraph 38 gives panel A as HEK293A/human PD-L1 cells, but the title printed on the sheet reads HEK293A/monkey PDL1
T2 construct: Full-length cDNA expressed stably; also called HEK293A/human PD-L1 cells; HEK293A/human PD-L1
T2 sequence (Q9NZQ7 19-290 limits assumed): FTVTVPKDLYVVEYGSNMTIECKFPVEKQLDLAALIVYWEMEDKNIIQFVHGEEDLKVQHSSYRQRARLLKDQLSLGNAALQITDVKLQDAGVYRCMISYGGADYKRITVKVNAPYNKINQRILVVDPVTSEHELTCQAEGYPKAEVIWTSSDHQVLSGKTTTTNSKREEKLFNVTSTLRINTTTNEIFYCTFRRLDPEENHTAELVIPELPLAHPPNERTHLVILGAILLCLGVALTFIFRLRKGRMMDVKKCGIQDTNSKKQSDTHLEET

Binder | binding result
B14 | binds
B15 | binds
B16 | binds

biological target: T3, monkey PD-L1 (ECD)-his (monkey, UniProt Q9NZQ7 19-238 (human entry)); assay: SPR (BIAcore 8K), monkey PD-L1 (ECD)-his coupled to CM5 chip, antibody injected, 1:1 Langmuir model
T3 construct: Bought protein; also called Cat #:90251-C08H, Sino Biological; not shown: His tag
T3 sequence (Q9NZQ7 other isoform, or with tags, fused parts or gaps): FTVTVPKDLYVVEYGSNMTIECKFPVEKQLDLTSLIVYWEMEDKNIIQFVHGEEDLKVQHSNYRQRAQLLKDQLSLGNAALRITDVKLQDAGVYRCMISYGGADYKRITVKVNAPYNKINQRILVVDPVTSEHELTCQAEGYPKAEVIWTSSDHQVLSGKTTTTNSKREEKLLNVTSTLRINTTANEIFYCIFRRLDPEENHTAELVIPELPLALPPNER
Experimental: (§1) These antibodies were also tested in SPR assays for their binding affinities to human and monkey PD-L1 with BIAcore™ 8K instrument (GE Life Sciences). Briefly, 100-200 response units (RU) of human PD-L1 (ECD)-his protein (Cat #:10084-H08H, Sino Biological, CN) or monkey PD-L1 (ECD)-his protein (Cat #:90251-008H, Sino Biological, CN) were coupled to CM5 biosensor chips (Cat #:BR-1005-30, GE Life Sciences, US), and the un-reacted groups were blocked with 1M ethanolamine Serially diluted antibodies at concentrations ranging from 0.3 μM to 10 μM were injected into the SPR running buffer (HBS-EP buffer, pH7.4, Cat #:BR-1006-69, GE Life Sciences, US) at 30 μL/minute. The binding affinities were calculated with the RUs of blank controls subtracted. The association rate (kₐ) and dissociation rate (kd) were calculated using the one-to-one Langmuir binding model (BIA Evaluation Software, GE Life Sciences), and the equilibrium dissociation constant KD was calculated as the kd/kₐ ratio.

Binder | Kd
B17 | 0.00807 nM
B12 | 0.369 nM
B13 | 0.245 nM

biological target: T1, monkey PD-L1 expressed on HEK293A cells; assay: FACS on HEK293A/monkey PD-L1 cells, serially diluted antibody (protocol of Example 4); remark: another data set of the same source

Binder | binding result
B14 | binds
B15 | binds
B16 | binds
B17 | binds

biological target: T2, human PD-L1 expressed on HEK293A cells; assay: FACS on HEK293A/human PD-L1 cells, serially diluted antibody (protocol of Example 4)

Binder | binding result
B1 | binds
B2 | binds
B3 | binds
B4 | binds
B5 | binds
B6 | binds
B7 | binds
B8 | binds
B9 | binds
B10 | binds
B11 | binds

biological target: T4, human PD-L1 (ECD)-his (human, UniProt Q9NZQ7 19-238); assay: SPR (BIAcore 8K), human PD-L1 (ECD)-his coupled to CM5 chip, antibody injected, 1:1 Langmuir model
T4 construct: Bought protein; it is not tied to the bought construct by a sentence of its own; also called recombinant human PD-L1(ECD)-his; Cat #:10084-H08H, Sino Biological; not shown: His tag
T4 sequence (Q9NZQ7 19-238): as the sequence (Q9NZQ7 other isoform, or with tags, fused parts or gaps) above, with T33A, S34A, N62S, Q68R, R82Q, L173F, A185T, I192T, L215H counted along it
Experimental: as §1

Binder | Kd
B17 | 0.518 nM
B12 | 0.433 nM
B13 | 0.307 nM

biological target: T2, human PD-L1 expressed on HEK293A cells; assay: FACS blocking assay: antibody titrated on HEK293A/human PD-L1 cells, then PD1-hFc (200 µg/ml) detected
Experimental: Briefly, 10⁵ HEK293A/human PD-L1 cells in 100 μl culture medium were seeded onto each well of 96-well plates, to which added 50 μl serially diluted anti-PD-L1 antibodies. After incubated at 4° C. for 1 hour, the plates were washed 3 times with PBST. […] After incubation at 4° C. for 1 hour, the plates were washed with PBST for 3 times, and added with PE coupled Goat Anti-human IgG (Cat #:PAI-86078, Thermofisher, US) diluted 500×. After incubation at 4° C. for 1 hour, the plates were washed with PBST for 3 times and then cell fluorescence was monitored using a FACS machine (BD).

Binder | EC50
B18 | 0.01 nM
B19 | 0.0147 nM

biological target: T1, monkey PD-L1 expressed on HEK293A cells; assay: FACS on HEK293A/monkey PD-L1 cells
Experimental: (§2) To determine whether the anti-PD-L1 antibodies bound to human, monkey or mouse PD-L1s expressed on HEK293A cells, a cell-based binding assay was performed by FACS using the HEK293A cells stably overexpressing human, monkey and mouse PD-L1s respectively as generated in Example 1. Briefly, 10⁵ HEK293A cells in 100 μl culture medium were seeded onto each well of the 96-well plates, to which added 50 μl serially diluted anti-PD-L1 antibodies. After incubated at 4° C. for 1 hour, plates were washed 3 times with PBST. Then, APC coupled Goat Anti-Mouse IgG (Cat #:405308, BioLegend, US) diluted 500× was added to the plates. After incubation at 4° C. for 1 hour, the plates were washed with PBS for 3 times and then cell fluorescence was monitored using a FACS machine (BD).

Binder | EC50
B18 | 0.499 nM
B19 | 1.25 nM

biological target: T2, human PD-L1 expressed on HEK293A cells; assay: FACS on HEK293A/human PD-L1 cells
Experimental: as §2

Binder | EC50
B18 | 0.572 nM
B19 | 1.75 nM

biological target: T5, mouse PD-L1 expressed on HEK293A cells (mouse, UniProt Q9EP73 19-290); assay: FACS on HEK293A/mouse PD-L1 cells
T5 construct: Full-length cDNA expressed stably; also called HEK293A/mouse PD-L1 cells; HEK293A/mouse PD-L1
T5 sequence (Q9EP73 19-290 limits assumed): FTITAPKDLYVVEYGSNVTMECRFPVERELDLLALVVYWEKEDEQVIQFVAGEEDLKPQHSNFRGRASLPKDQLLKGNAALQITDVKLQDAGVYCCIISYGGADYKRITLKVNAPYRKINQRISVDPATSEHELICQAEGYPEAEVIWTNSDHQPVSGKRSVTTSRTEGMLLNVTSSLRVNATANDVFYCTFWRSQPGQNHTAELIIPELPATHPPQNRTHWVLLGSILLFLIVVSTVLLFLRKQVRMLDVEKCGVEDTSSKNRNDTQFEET
Experimental: as §2

Binder | binding result
B18 | no binding
B19 | no binding
